Assay results taken from patent publication US20160108097A1 (UNITED STATES OF AMERICA AS REPRESENTED BY THE SECRETARY …, published 2016).

Tests used:
Env of HIV-1RF virus = Env of HIV-1RF virus (HIV-1 RF); test: cell-based or functional assay
[1] = target: HIV envelope glycoprotein gp120 (HIV); test: ITC, 30 °C, lectin titrated into gp120
[2] = target: GRFT-resistant envelope Du179 GRFT c17 (R); test: cell-based or functional assay
[3] = target: GRFT-resistant envelope Du156R18 (R); test: cell-based or functional assay
[4] = target: HIV envelope glycoprotein gp120 (HIV); test: ITC, 30 °C, tandemer (180 µM) titrated into gp120 (2.5 µM)
[5] = target: HIV-1 subtype B envelope JR-FL (HIV-1 subtype B); test: cell-based or functional assay
[6] = target: HIV-1 subtype B envelope QH0692.42 (HIV-1 subtype B); test: cell-based or functional assay
[7] = target: HIV-1 subtype C envelope COT6.15 (HIV-1 subtype C); test: cell-based or functional assay
[8] = target: HIV-1 subtype B envelope CAAN5342.A2 (HIV-1 subtype B); test: cell-based or functional assay
[9] = target: HIV-1 subtype B envelope PVO.4 (HIV-1 subtype B); test: cell-based or functional assay
[10] = target: HIV-1 subtype C envelope Du156.12 (HIV-1 subtype C); test: cell-based or functional assay
[11] = target: HIV-1 subtype C envelope Du179.14 (HIV-1 subtype C); test: cell-based or functional assay
[12] = target: HIV-1 subtype A envelope Q23.17 (HIV-1 subtype A); test: cell-based or functional assay
[13] = target: HIV-1 subtype C envelope DU151.2 (HIV-1 subtype C); test: cell-based or functional assay
[14] = target: HIV-1 subtype C envelope CAP206.8 (HIV-1 subtype C); test: cell-based or functional assay
[15] = target: HIV-1 subtype A envelope Q168.a2 (HIV-1 subtype A); test: cell-based or functional assay
[16] = target: HIV envelope glycoprotein gp120 (HIV); test: ITC

Binder | Anti-HIV EC50 (XTT cytopathicity assay, HIV-1RF, CEM-SS cells) (Env of HIV-1RF virus) [pM] | IC50 (pseudovirus neutralization, JC53bl-13 cells) [2] [pM] | fold reduction in activity between the WT (Du179.14) and R viruses [2] [fold] | IC50 (pseudovirus neutralization, JC53bl-13 cells) [3] [pM] | fold reduction in activity between the WT (Du156.12) and R viruses [3] [fold] | Kd [4] [pM] | TΔS [4] [kcal/mol] | ΔG [4] [kcal/mol] | ΔH [4] [kcal/mol] | IC50 (pseudovirus neutralization, JC53bl-13 cells) [5] [pM] | IC50 (pseudovirus neutralization, JC53bl-13 cells) [6] [pM] | IC50 (pseudovirus neutralization, JC53bl-13 cells) [7] [pM] | IC50 (pseudovirus neutralization, JC53bl-13 cells) [8] [pM] | IC50 (pseudovirus neutralization, JC53bl-13 cells) [9] [pM] | IC50 (pseudovirus neutralization, JC53bl-13 cells) [10] [pM] | IC50 (pseudovirus neutralization, JC53bl-13 cells) [11] [pM] | IC50 (pseudovirus neutralization, JC53bl-13 cells) [12] [pM] | IC50 (pseudovirus neutralization, JC53bl-13 cells) [13] [pM] | IC50 (pseudovirus neutralization, JC53bl-13 cells) [14] [pM] | IC50 (pseudovirus neutralization, JC53bl-13 cells) [15] [pM] | further results
monomeric griffithsin mGRFT (1GS-S, PDB ID 3LL2) (designed binder, also called IGS-S; GRFT monomer) SSTHRKFGGSGGSPFSGSGLSSIAVRSGSYLDAIIIDGVHHGGSGGNLSPTFTFGSGEYISNMTIRSGDYIDNISFETNMGRRFGPYGGSGGSANTLSNVKVIQINGSAGDYLDSLDIYYEQY | 119000 |  |  |  |  |  |  |  |  |  |  |  |  |  |  |  |  |  |  |  | Kd [1]: 112000 pM; TΔS [1]: -26 kcal/mol; ΔG [1]: -9.47 kcal/mol; ΔH [1]: -35.5 kcal/mol
3mGRFT (3mG) (mGRFT-GlyThrGly-mGRFT-GlyThrGly-mGRFT) (designed binder) SSTHRKFGGSGGSPFSGSGLSSIAVRSGSYLDAIIIDGVHHGGSGGNLSPTFTFGSGEYISNMTIRSGDYIDNISFETNMGRRFGPYGGSGGSANTLSNVKVIQINGSAGDYLDSLDIYYEQYGTGSSTHRKFGGSGGSPFSGSGLSSIAVRSGSYLDAIIIDGVHHGGSGGNLSPTFTFGSGEYISNMTIRSGDYIDNISFETNMGRRFGPYGGSGGSANTLSNVKVIQINGSAGDYLDSLDIYYEQYGTGSSTHRKFGGSGGSPFSGSGLSSIAVRSGSYLDAIIIDGVHHGGSGGNLSPTFTFGSGEYISNMTIRSGDYIDNISFETNMGRRFGPYGGSGGSANTLSNVKVIQINGSAGDYLDSLDIYYEQY | 1 | 3860 | 31 | 1110 | 14 | 3000 | -62.7 | -11.8 | -74.4 | 325 | 223 | 412 | 326 | 270 | 79.4 | 124 | 462 | 308 | 181 | 331 | enthalpy/entropy compensation (ΔH/ΔS) ratio [16]: 1.19
2mGRFT^long (2mG3) (mGRFT-GlyThrGlyGlyThrGlyGlyThrGly-mGRFT) (designed binder, also called 2mGRFT3; 2mrG3) SSTHRKFGGSGGSPFSGSGLSSIAVRSGSYLDAIIIDGVHHGGSGGNLSPTFTFGSGEYISNMTIRSGDYIDNISFETNMGRRFGPYGGSGGSANTLSNVKVIQINGSAGDYLDSLDIYYEQYGTGGTGGTGSSTHRKFGGSGGSPFSGSGLSSIAVRSGSYLDAIIIDGVHHGGSGGNLSPTFTFGSGEYISNMTIRSGDYIDNISFETNMGRRFGPYGGSGGSANTLSNVKVIQINGSAGDYLDSLDIYYEQY | 2.6 | 34400 | 239 | 26000 | 422 | 3000 | -35.4 | -11.8 | -47.2 | 5770 | 513 | 2520 | 16900 | 558 | 61.6 | 144 | 7160 | 1700 | 696 | 5280 | enthalpy/entropy compensation (ΔH/ΔS) ratio [16]: 1.33
2mGRFT (2mG) (mGRFT-GlyThrGly-mGRFT) (designed binder) SSTHRKFGGSGGSPFSGSGLSSIAVRSGSYLDAIIIDGVHHGGSGGNLSPTFTFGSGEYISNMTIRSGDYIDNISFETNMGRRFGPYGGSGGSANTLSNVKVIQINGSAGDYLDSLDIYYEQYGTGSSTHRKFGGSGGSPFSGSGLSSIAVRSGSYLDAIIIDGVHHGGSGGNLSPTFTFGSGEYISNMTIRSGDYIDNISFETNMGRRFGPYGGSGGSANTLSNVKVIQINGSAGDYLDSLDIYYEQY | 2.7 | 36000 | 228 | 27100 | 1490 | 5000 | -59.9 | -11.6 | -69.6 | 2090 | 202 | 1460 | 5270 | 301 | 18.2 | 158 | 7260 | 694 | 178 | 1550 | enthalpy/entropy compensation (ΔH/ΔS) ratio [16]: 1.16
4mGRFT (4mG) (mGRFT-GlyThrGly-mGRFT-GlyThrGly-mGRFT-GlyThrGly-mGRFT) (designed binder) SSTHRKFGGSGGSPFSGSGLSSIAVRSGSYLDAIIIDGVHHGGSGGNLSPTFTFGSGEYISNMTIRSGDYIDNISFETNMGRRFGPYGGSGGSANTLSNVKVIQINGSAGDYLDSLDIYYEQYGTGSSTHRKFGGSGGSPFSGSGLSSIAVRSGSYLDAIIIDGVHHGGSGGNLSPTFTFGSGEYISNMTIRSGDYIDNISFETNMGRRFGPYGGSGGSANTLSNVKVIQINGSAGDYLDSLDIYYEQYGTGSSTHRKFGGSGGSPFSGSGLSSIAVRSGSYLDAIIIDGVHHGGSGGNLSPTFTFGSGEYISNMTIRSGDYIDNISFETNMGRRFGPYGGSGGSANTLSNVKVIQINGSAGDYLDSLDIYYEQYGTGSSTHRKFGGSGGSPFSGSGLSSIAVRSGSYLDAIIIDGVHHGGSGGNLSPTFTFGSGEYISNMTIRSGDYIDNISFETNMGRRFGPYGGSGGSANTLSNVKVIQINGSAGDYLDSLDIYYEQY | 1.2 | 2080 | 22 | 688 | 8 |  |  |  |  | 287 | 170 | 273 | 232 | 185 | 88.7 | 93.4 | 276 | 300 | 164 | 273 | 
